{
  "source": "paper PMC9482650",
  "about": "“Quantitative fragmentomics allow affinity mapping of interactomes” (Nature Communications, 2022)",
  "binders": {"B1": {"name": "ADGRE5, P48960 (peptide)", "chain": "RALRASESGI"}, "B2": {"name": "GRIP1, Q9Y3R0 (peptide)", "chain": "LETREPTNTL"}},
  "data": [
    {"biological_target": "T1, DFNB31_1, Q9P202", "T1 sequence (Q9P202 135-233, limits assumed, looked up)": "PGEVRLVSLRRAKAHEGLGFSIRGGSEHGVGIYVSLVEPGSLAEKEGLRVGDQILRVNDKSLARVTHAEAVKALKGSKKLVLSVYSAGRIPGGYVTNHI", "test": "holdup assay", "design": "key: below the threshold = too weak to quantify, mostly under pKd 3.1 to 4", "conditions": "plain residues with an end cap or a label only (N-terminal biotin on a linker: ado-ado)", "values": [
      {"binder": "B1", "pKd": 3.65},
      {"binder": "B2", "pKd": "below the threshold"}
    ]},
    {"biological_target": "T2, PDZRN3_1, Q9UPQ7", "T2 sequence (Q9UPQ7 244-349, limits assumed, looked up)": "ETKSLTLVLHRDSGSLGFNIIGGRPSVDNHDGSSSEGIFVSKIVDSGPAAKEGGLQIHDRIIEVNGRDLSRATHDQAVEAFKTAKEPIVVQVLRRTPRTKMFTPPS", "test": "holdup assay", "design": "key: below the threshold = too weak to quantify, mostly under pKd 3.1 to 4", "conditions": "plain residues with an end cap or a label only (N-terminal biotin on a linker: ado-ado)", "values": [
      {"binder": "B1", "pKd": "below the threshold"},
      {"binder": "B2", "pKd": "below the threshold"}
    ]},
    {"biological_target": "GRIP2_6, Q9C0E4", "sequence (Q9C0E4 648-740)": "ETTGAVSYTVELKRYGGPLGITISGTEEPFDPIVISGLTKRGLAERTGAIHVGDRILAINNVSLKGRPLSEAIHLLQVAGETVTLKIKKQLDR", "test": "holdup assay", "design": "key: below the threshold = too weak to quantify, mostly under pKd 3.1 to 4", "conditions": "plain residues with an end cap or a label only (N-terminal biotin on a linker: ado-ado)", "values": [
      {"binder": "B1", "pKd": "below the threshold"},
      {"binder": "B2", "pKd": "below the threshold"}
    ]},
    {"biological_target": "GIPC2, Q8TF65", "sequence (Q8TF65 112-203)": "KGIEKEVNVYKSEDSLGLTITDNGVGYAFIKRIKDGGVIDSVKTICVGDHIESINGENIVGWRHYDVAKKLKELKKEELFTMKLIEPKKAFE", "test": "holdup assay", "design": "key: below the threshold = too weak to quantify, mostly under pKd 3.1 to 4", "conditions": "plain residues with an end cap or a label only (N-terminal biotin on a linker: ado-ado)", "values": [
      {"binder": "B1", "pKd": "below the threshold"},
      {"binder": "B2", "pKd": "below the threshold"}
    ]},
    {"biological_target": "CASK, O14936", "sequence (O14936 487-570)": "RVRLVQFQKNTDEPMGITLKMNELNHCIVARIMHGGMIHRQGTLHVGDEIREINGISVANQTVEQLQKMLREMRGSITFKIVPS", "test": "holdup assay", "design": "key: below the threshold = too weak to quantify, mostly under pKd 3.1 to 4", "conditions": "plain residues with an end cap or a label only (N-terminal biotin on a linker: ado-ado)", "values": [
      {"binder": "B1", "pKd": "below the threshold"},
      {"binder": "B2", "pKd": "below the threshold"}
    ]},
    {"biological_target": "T3, MPP2, Q14168", "T3 sequence (Q14168 180-250, limits assumed, looked up)": "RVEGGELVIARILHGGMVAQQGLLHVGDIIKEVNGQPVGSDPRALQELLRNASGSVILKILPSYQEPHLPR", "test": "holdup assay", "design": "key: below the threshold = too weak to quantify, mostly under pKd 3.1 to 4", "conditions": "plain residues with an end cap or a label only (N-terminal biotin on a linker: ado-ado)", "values": [
      {"binder": "B1", "pKd": "below the threshold"},
      {"binder": "B2", "pKd": "below the threshold"}
    ]},
    {"biological_target": "T4, TIAM2, Q8IVF5", "T4 sequence (Q8IVF5 885-986, limits assumed, looked up)": "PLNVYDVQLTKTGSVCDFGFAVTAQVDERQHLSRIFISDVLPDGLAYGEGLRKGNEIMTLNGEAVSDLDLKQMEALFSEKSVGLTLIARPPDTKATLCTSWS", "test": "holdup assay", "design": "key: below the threshold = too weak to quantify, mostly under pKd 3.1 to 4", "conditions": "plain residues with an end cap or a label only (N-terminal biotin on a linker: ado-ado)", "values": [
      {"binder": "B1", "pKd": "below the threshold"},
      {"binder": "B2", "pKd": "below the threshold"}
    ]},
    {"biological_target": "T5, PDZD2_2, O15018", "T5 sequence (O15018 329-429, limits assumed, looked up)": "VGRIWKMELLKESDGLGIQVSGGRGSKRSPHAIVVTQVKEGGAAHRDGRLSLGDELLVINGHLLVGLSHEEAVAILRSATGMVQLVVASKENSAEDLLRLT", "test": "holdup assay", "design": "key: below the threshold = too weak to quantify, mostly under pKd 3.1 to 4", "conditions": "plain residues with an end cap or a label only (N-terminal biotin on a linker: ado-ado)", "values": [
      {"binder": "B1", "pKd": "below the threshold"},
      {"binder": "B2", "pKd": "below the threshold"}
    ]},
    {"biological_target": "Inadl_3, Q8NI35", "sequence (Q8NI35 359-469)": "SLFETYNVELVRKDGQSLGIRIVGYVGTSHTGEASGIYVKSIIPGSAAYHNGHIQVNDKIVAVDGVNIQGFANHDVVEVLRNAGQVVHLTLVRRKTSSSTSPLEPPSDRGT", "test": "holdup assay", "design": "key: below the threshold = too weak to quantify, mostly under pKd 3.1 to 4", "conditions": "plain residues with an end cap or a label only (N-terminal biotin on a linker: ado-ado)", "values": [
      {"binder": "B1", "pKd": "below the threshold"},
      {"binder": "B2", "pKd": "below the threshold"}
    ]},
    {"biological_target": "T6, DFNB31_2, Q9P202", "T6 sequence (Q9P202 274-371, limits assumed, looked up)": "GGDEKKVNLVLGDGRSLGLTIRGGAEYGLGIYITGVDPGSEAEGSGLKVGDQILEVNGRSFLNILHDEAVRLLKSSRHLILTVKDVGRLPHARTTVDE", "test": "holdup assay", "design": "key: below the threshold = too weak to quantify, mostly under pKd 3.1 to 4", "conditions": "plain residues with an end cap or a label only (N-terminal biotin on a linker: ado-ado)", "values": [
      {"binder": "B1", "pKd": "below the threshold"},
      {"binder": "B2", "pKd": "below the threshold"}
    ]},
    {"biological_target": "T7, GRIP1_2, Q9Y3R0", "T7 sequence (Q9Y3R0 145-248, limits assumed, looked up)": "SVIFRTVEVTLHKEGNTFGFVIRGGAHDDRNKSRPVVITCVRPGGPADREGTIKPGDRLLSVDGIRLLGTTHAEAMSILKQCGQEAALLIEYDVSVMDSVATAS", "test": "holdup assay", "design": "key: below the threshold = too weak to quantify, mostly under pKd 3.1 to 4", "conditions": "plain residues with an end cap or a label only (N-terminal biotin on a linker: ado-ado)", "values": [
      {"binder": "B1", "pKd": "below the threshold"},
      {"binder": "B2", "pKd": "below the threshold"}
    ]},
    {"biological_target": "T8, TX1BP3, O14907", "T8 sequence (O14907 10-122, limits assumed, looked up)": "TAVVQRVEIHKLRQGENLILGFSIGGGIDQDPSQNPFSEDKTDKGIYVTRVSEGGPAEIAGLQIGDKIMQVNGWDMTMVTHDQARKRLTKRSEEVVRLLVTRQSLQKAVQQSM", "test": "holdup assay", "design": "key: below the threshold = too weak to quantify, mostly under pKd 3.1 to 4", "conditions": "plain residues with an end cap or a label only (N-terminal biotin on a linker: ado-ado)", "values": [
      {"binder": "B1", "pKd": "below the threshold"},
      {"binder": "B2", "pKd": "below the threshold"}
    ]},
    {"biological_target": "T9, LRRC7, Q96NW7", "T9 sequence (Q96NW7 1440-1537, limits assumed, looked up)": "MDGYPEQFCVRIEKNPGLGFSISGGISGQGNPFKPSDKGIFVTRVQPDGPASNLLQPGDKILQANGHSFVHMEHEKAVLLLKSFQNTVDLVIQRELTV", "test": "holdup assay", "design": "key: below the threshold = too weak to quantify, mostly under pKd 3.1 to 4", "conditions": "plain residues with an end cap or a label only (N-terminal biotin on a linker: ado-ado)", "values": [
      {"binder": "B1", "pKd": "below the threshold"},
      {"binder": "B2", "pKd": "below the threshold"}
    ]},
    {"biological_target": "T10, SYNJ2BP, P57105", "T10 sequence (P57105 8-110, limits assumed, looked up)": "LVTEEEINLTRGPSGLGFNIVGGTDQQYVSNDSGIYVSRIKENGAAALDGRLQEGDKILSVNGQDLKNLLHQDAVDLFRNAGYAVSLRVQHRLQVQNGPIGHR", "test": "holdup assay", "design": "key: below the threshold = too weak to quantify, mostly under pKd 3.1 to 4", "conditions": "plain residues with an end cap or a label only (N-terminal biotin on a linker: ado-ado)", "values": [
      {"binder": "B1", "pKd": 3.79},
      {"binder": "B2", "pKd": "below the threshold"}
    ]},
    {"biological_target": "FRMPD4, Q14CM0", "sequence (Q14CM0 67-160)": "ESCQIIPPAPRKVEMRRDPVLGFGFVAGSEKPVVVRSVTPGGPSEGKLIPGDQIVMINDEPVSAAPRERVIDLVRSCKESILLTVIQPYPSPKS", "test": "holdup assay", "design": "key: below the threshold = too weak to quantify, mostly under pKd 3.1 to 4", "conditions": "plain residues with an end cap or a label only (N-terminal biotin on a linker: ado-ado)", "values": [
      {"binder": "B1", "pKd": "below the threshold"},
      {"binder": "B2", "pKd": "below the threshold"}
    ]},
    {"biological_target": "T11, PCLO, Q9Y6V0", "T11 sequence (Q9Y6V0 4491-4600, limits assumed, looked up)": "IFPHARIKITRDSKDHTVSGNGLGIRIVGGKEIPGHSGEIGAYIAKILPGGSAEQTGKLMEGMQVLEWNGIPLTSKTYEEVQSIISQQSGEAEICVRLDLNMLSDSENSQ", "test": "holdup assay", "design": "key: below the threshold = too weak to quantify, mostly under pKd 3.1 to 4", "conditions": "plain residues with an end cap or a label only (N-terminal biotin on a linker: ado-ado)", "values": [
      {"binder": "B1", "pKd": "below the threshold"},
      {"binder": "B2", "pKd": "below the threshold"}
    ]},
    {"biological_target": "SNX27, Q96L92", "test": "holdup assay", "design": "key: below the threshold = too weak to quantify, mostly under pKd 3.1 to 4", "conditions": "plain residues with an end cap or a label only (N-terminal biotin on a linker: ado-ado)", "values": [
      {"binder": "B1", "pKd": "below the threshold"},
      {"binder": "B2", "pKd": "below the threshold"}
    ]},
    {"biological_target": "T12, FRMPD1, Q5SYB0", "T12 sequence (Q5SYB0 52-145, limits assumed, looked up)": "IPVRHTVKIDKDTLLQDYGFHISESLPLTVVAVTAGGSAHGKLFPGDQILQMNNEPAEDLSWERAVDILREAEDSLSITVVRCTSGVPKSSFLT", "test": "holdup assay", "design": "key: below the threshold = too weak to quantify, mostly under pKd 3.1 to 4", "conditions": "plain residues with an end cap or a label only (N-terminal biotin on a linker: ado-ado)", "values": [
      {"binder": "B1", "pKd": "below the threshold"},
      {"binder": "B2", "pKd": "below the threshold"}
    ]},
    {"biological_target": "FRMPD2_3, Q68DX3", "sequence (Q68DX3 1073-1166)": "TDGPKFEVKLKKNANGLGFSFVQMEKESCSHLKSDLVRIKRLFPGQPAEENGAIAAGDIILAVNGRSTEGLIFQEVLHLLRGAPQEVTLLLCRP", "test": "holdup assay", "design": "key: below the threshold = too weak to quantify, mostly under pKd 3.1 to 4", "conditions": "plain residues with an end cap or a label only (N-terminal biotin on a linker: ado-ado)", "values": [
      {"binder": "B1", "pKd": "below the threshold"},
      {"binder": "B2", "pKd": "below the threshold"}
    ]},
    {"biological_target": "T13, SNTG1, Q9NSN8", "T13 sequence (Q9NSN8 52-150, limits assumed, looked up)": "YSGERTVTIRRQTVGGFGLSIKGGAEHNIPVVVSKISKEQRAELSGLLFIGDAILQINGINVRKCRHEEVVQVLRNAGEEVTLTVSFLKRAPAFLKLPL", "test": "holdup assay", "design": "key: below the threshold = too weak to quantify, mostly under pKd 3.1 to 4", "conditions": "plain residues with an end cap or a label only (N-terminal biotin on a linker: ado-ado)", "values": [
      {"binder": "B1", "pKd": "below the threshold"},
      {"binder": "B2", "pKd": "below the threshold"}
    ]},
    {"biological_target": "DLG5_1, Q8TDM6", "sequence (Q8TDM6 617-713)": "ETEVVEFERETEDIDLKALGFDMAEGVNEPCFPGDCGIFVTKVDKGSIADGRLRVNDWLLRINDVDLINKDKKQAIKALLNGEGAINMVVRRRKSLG", "test": "holdup assay", "design": "key: below the threshold = too weak to quantify, mostly under pKd 3.1 to 4", "conditions": "plain residues with an end cap or a label only (N-terminal biotin on a linker: ado-ado)", "values": [
      {"binder": "B1", "pKd": "below the threshold"},
      {"binder": "B2", "pKd": "below the threshold"}
    ]},
    {"biological_target": "MAGI1_2, Q96QZ7", "sequence (Q96QZ7 456-580)": "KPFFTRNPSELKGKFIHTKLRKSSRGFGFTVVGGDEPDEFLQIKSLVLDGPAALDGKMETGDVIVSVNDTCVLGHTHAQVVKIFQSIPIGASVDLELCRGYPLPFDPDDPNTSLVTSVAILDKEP", "test": "holdup assay", "design": "key: below the threshold = too weak to quantify, mostly under pKd 3.1 to 4", "conditions": "plain residues with an end cap or a label only (N-terminal biotin on a linker: ado-ado)", "values": [
      {"binder": "B1", "pKd": "below the threshold"},
      {"binder": "B2", "pKd": "below the threshold"}
    ]},
    {"biological_target": "T14, PTPN13_1, Q12923", "T14 sequence (Q12923 1088-1188, limits assumed, looked up)": "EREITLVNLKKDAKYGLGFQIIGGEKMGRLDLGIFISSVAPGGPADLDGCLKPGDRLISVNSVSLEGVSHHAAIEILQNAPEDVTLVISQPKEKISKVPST", "test": "holdup assay", "design": "key: below the threshold = too weak to quantify, mostly under pKd 3.1 to 4", "conditions": "plain residues with an end cap or a label only (N-terminal biotin on a linker: ado-ado)", "values": [
      {"binder": "B1", "pKd": "below the threshold"},
      {"binder": "B2", "pKd": "below the threshold"}
    ]}
  ]
}
